Consider 15 molecules from patent CN114920842A (HUALAN GENE ENG CO LTD, dated 2022).

Residue numbers refer to the chain shown, from its start.

T1: 重组人PLVAP/PV-1蛋白 (human, UniProt Q9BX97 49-442, limits assumed)
T1 construct: Bought reagent (Abcam); Coupled to a CM5 chip in the SPR assay; also called 质膜膜泡关联蛋白
T1 sequence (looked up): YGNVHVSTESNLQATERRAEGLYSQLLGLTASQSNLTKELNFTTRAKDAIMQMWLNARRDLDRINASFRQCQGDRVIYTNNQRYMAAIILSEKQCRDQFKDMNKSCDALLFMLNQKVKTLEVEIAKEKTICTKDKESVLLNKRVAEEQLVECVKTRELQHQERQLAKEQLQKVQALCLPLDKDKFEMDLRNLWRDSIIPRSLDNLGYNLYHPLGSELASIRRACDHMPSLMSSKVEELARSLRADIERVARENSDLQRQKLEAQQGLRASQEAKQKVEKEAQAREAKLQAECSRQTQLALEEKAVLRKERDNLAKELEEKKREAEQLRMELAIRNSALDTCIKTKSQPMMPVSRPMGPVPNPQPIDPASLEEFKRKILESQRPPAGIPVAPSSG

B1: HLPV-P01 (antibody, IgG1, V domains shown)
VH: QVQLVQSGAEVKKPGASVKVSCKASGYTFTDYYMYWVRQAPGQGLEWIGEINPTQGDVNFNEMFKSRVTMTVDTSTSTAYMELSSLRSEDTAVYYCTSIFYWGQGTLVTVSS
VL: DIVMTQSPSSLSASVGDRVTITCKASQDIKYQLSWYQQKPGKAPKTLIYYATDLADGVPSRFSGSGSGQEFTLTISSLQPEDFATYYCVQHDDRPFTFGQGTKLEIK
notes: Full IgG1/kappa antibody; also called 中间抗体; not shown: human IgG1 heavy chain constant region, UniProtKB P01857.1; human Kappa light chain constant region, UniProtKB P01834.2
B2: HLPV-P14 (antibody, IgG1, V domains shown)
VH: B1 VH with D31N, Q55S
VL: B1 VL with T52G
notes: Full IgG1/kappa antibody; not shown: human IgG1 heavy chain constant region, UniProtKB P01857.1; human Kappa light chain constant region, UniProtKB P01834.2
B3: HLPV-P11 (antibody, IgG1, V domains shown)
VH: B1 VH with S98T
VL: B1 VL with T97S
notes: as for B2
B4: HLPV-P00 (antibody, IgG1, V domains shown)
VH: B1 VH with F100H
VL: B1 VL with Y31T, V89L
notes: Full IgG1/kappa antibody, VH fused at its C-terminus to the IgG1 constant region, VL to the kappa constant region; expressed in ExpiCHO-S; also called 原始抗体; not shown: human IgG1 heavy chain constant region, UniProtKB P01857.1; human Kappa light chain constant region, UniProtKB P01834.2
B5: HLPV-P04 (antibody, IgG1, V domains shown)
VH: B1 VH with T30R, Q55T
VL: B1 VL with D53S
notes: as for B2
B6: HLPV-P05 (antibody, IgG1, V domains shown)
VH: B1 VH
VL: B1 VL with S34T, D93N
notes: as for B2
B7: HLPV-P09 (antibody, IgG1, V domains shown)
VH: B1 VH with S98T
VL: B1 VL with K30G, D92Y
notes: as for B2
B8: HLPV-P13 (antibody, IgG1, V domains shown)
VH: B1 VH with T28V, Q55S
VL: B1 VL with T52G
notes: as for B2
B9: HLPV-P06 (antibody, IgG1, V domains shown)
VH: B1 VH with D31A, Q55S
VL: B1 VL with D53F
notes: as for B2
B10: HLPV-P12 (antibody, IgG1, V domains shown)
VH: B1 VH with T54S
VL: B1 VL with L54R
notes: as for B2
B11: HLPV-P02 (antibody, IgG1, V domains shown)
VH: B1 VH with T28V, Q55T
VL: B1 VL with A51S
notes: as for B2
B12: HLPV-P07 (antibody, IgG1, V domains shown)
VH: B1 VH with T30E, N59R
VL: B1 VL with D53Y
notes: as for B2
B13: HLPV-P03 (antibody, IgG1, V domains shown)
VH: B1 VH with T30E, I51V
VL: B1 VL with D53F
notes: as for B2
B14: HLPV-P10 (antibody, IgG1, V domains shown)
VH: B1 VH
VL: B1 VL with S34T, D92S
notes: as for B2
B15: HLPV-P08 (antibody, IgG1, V domains shown)
VH: B1 VH with S98T
VL: B1 VL with S34T, Q90S
notes: as for B2

The assay has as its target T1, 重组人PLVAP/PV-1蛋白. The assay can be described thus: SPR, Biacore T200, PV-1 coupled to CM5 chip, antibody as analyte, 25℃, 1:1 fit. A general note: Surface plasmon resonance follows binding to a sensor surface in real time, without labels.
Turning to B1, the “倍数 (fold against HLPV-P00)” value was 7.31 fold.
Take B2: the “倍数 (fold against HLPV-P00)” value stood at 8.58 fold.
For B3 the value was 40.5 fold.
For the molecule B4, the “倍数 (fold against HLPV-P00)” value came to 1 fold.
Turning to B5, the “倍数 (fold against HLPV-P00)” value is 14 fold.
B6: the “倍数 (fold against HLPV-P00)” value was 25.8 fold.
On to B7, for which the “倍数 (fold against HLPV-P00)” value came to 36.8 fold.
On to B8, for which the “倍数 (fold against HLPV-P00)” value was found to be 9.29 fold.
As for B9, the “倍数 (fold against HLPV-P00)” value is 8.95 fold.
For B10 the value was 4.1 fold; for B11, 6.29 fold; for B12, 11.4 fold.
As to B13, the “倍数 (fold against HLPV-P00)” value stood at 13.4 fold.
For B14 the value was 23.4 fold; for B15, 38.4 fold.
